Source: patent US8119387B2, “Polypeptides of strain Bacillus sp. P203” (Novozymes A/S, priority 2005, dated 2012)

Experiments:
[1] = target: recombinant carbonic anhydrase (SEQ ID NO: 4) from Bacillus sp. P203 (Alkalicoccobacillus plakortidis, UniProt A0ABT0XM38); details: read-out: IC50, inhibition of recombinant carbonic anhydrase; purified recombinant enzyme from Bacillus sp. P203
Description: A standard assay contained 900 microliter of PNPA, 10 microliter of 300 mM Tris pH 7.5 and 90 microliter of carbonic anhydrase protein solution. After a pre-incubation for 5 min, the enzyme was added to the PNPA buffer mixture and the increase in absorbance (due to the hydrolysis of the substrate and release of p-nitrophenol) at 348 nm was monitored photometrically in a quartz cuvette over a period of 10 min. As a positive control for both activity assays, a solution of bovine carbonic anhydrase (Calbiochem, 1 mg per mL) may be used.
Enzyme was pre-incubated with 1 mM of the substances for 1 h on ice in a total volume of 50 micro liter before testing activity with 10 micro liter of the mixture with the Wilbur and Anderson, 1948 method. The control with no additives (water) was set to 100% activity. […] Instead activity with 25 micro molar concentration of the chemicals are given.

[2] = Temperature and storage stability of purified recombinant carbonic anhydrase (residual activity); type: physicochemical
Description: The carbonic anhydrase activity was determined according to Wilbur. […] 147-154. […] (see FIG. 2).

Sequence of recombinant carbonic anhydrase (SEQ ID NO: 4) from Bacillus sp. P203 (A0ABT0XM38 entry or part of it): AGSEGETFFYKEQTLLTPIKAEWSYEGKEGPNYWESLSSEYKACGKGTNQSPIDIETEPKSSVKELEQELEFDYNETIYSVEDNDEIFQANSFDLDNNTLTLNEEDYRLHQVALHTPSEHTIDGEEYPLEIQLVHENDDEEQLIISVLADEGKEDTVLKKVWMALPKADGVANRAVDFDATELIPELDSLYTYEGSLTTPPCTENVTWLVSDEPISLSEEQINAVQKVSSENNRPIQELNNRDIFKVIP

Row | Molecule | IC50 [1] | activity remaining after storage ([2]; 4° C. in buffer F for a week) | effect of storage with DTT on stability ([2]; buffer F supplemented with 1 mM dithiothreitol (DTT)) | activity remaining after storage ([2]; room temperature (20° C.), buffer F) | stability at elevated temperature ([2]; temperatures over 37° C., tested 4-60° C. for 1 and 17 h (FIG. 2)) | activity remaining after storage ([2]; −20° C. for one week in buffer F)
1 | [N-]=[N+]=[N-] [azide] | 500 µM | – | – | – | – | –
2 | recombinant carbonic anhydrase: purified recombinant carbonic anhydrase (SEQ ID NO: 4) from strain Bacillus sp. P203 (protein, Bacillus sp. P 203, P203) MRKTNVLLKSTMITTLLLSSTLLVTTPIYAHTETQQLSYKTLNDLLTEDGHSGWSYSGLTGPEYWGELNEDYKACSKGEEQSPIALQNEDIDNEKWSFDLDYEETEFSIENNGHTIQANVEGSSSNTLLLNDTEYNLVQFHFHSPSEHTLDDEYFEMEVHLVHQDEHANLAVLGVLIEEGEQNETLTDMWELMPGQQGEAAERITLNPSELVPSDLSTFQYDGSLTTPPCSEDVKWSVSDSTISLSPEQLEAFQDLYPNNYRPIQDLGNREVGFHY | – | 97+/−4 % of original activity | stabilize the enzyme | 95+/−4 % of original activity | rapidly decreased | 99+/−4 % of original activity
